Three molecules from PMC5612097, “Discovery of a microbial transglutaminase enabling highly site-specific labeling of proteins” (The Journal of Biological Chemistry, 2017) can be followed below.

In one assay the target is T1, KalbTG (Kutzneria viridogrisea, UniProt W5WHY8).
T1 construct: gene KALB_7456; E. coli; predicted signal peptide removed; N-terminal 2x SlyD (E. coli) chaperone tag with factor Xa site (cut off for some applications), N-terminal MGGGSTTAQAAAVAAPTPR, C-terminal GGGS-His8
Briefly: peptide array transamidation, Cy5-streptavidin fluorescence. In kind it is biochemical. The note with it: 50 uM amine donor with 5-mer Gln peptides; 100 mM Tris-HCl, pH 8, 1 mM DTT, 37 °C, 45 min.

Assay [1] has as its target microbial transglutaminase (MTG) from Streptomyces mobaraensis, engineered enzyme from Zedira (Streptomyces mobaraensis) (UniProt P81453).
The target in assay [2] is microbial transglutaminase from Kutzneria albida (KalbTG) (Kutzneria albida DSM 43870).

Where no end group is shown, it is not given here. The star is where a group is joined. Cbz = O=C(OCc1ccccc1)*

T1 sequence (W5WHY8 entry or part of it): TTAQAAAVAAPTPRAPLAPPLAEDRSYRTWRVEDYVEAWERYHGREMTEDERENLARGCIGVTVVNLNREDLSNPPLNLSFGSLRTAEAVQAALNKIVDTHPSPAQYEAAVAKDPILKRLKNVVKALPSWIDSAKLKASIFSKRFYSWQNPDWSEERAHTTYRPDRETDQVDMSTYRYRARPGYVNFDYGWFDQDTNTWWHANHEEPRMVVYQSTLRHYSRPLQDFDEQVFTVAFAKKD

With `NCCCCCNC(=O)CCCC[C@@H]1SC[C@@H]2NC(=O)N[C@@H]21` [N-(biotinyl)cadaverine], on KalbTG, the “peptide array transamidation, Cy5-streptavidin fluorescence” value is “N-(biotinyl)cadaverine (Zedira) was used as a substitute for a Lys substrate to biotinylate Gln peptides”.
For the molecule Cbz-GGGYRYRQGGGG, the Km in the GLDH-coupled transglutaminase activity assay (37 °C, peptide 0-1 mM, 1 mM cadaverine as amine donor) in assay [1] came out at 644 µM; in assay [2] it was 2150 µM.
Take Cbz-GGGDYALQGGGG: the Km in the GLDH-coupled transglutaminase activity assay (37 °C, peptide 0-1 mM, 1 mM cadaverine as amine donor) in assay [1] was 847 µM.
